Laboratory results: IntAct's records for PubMed 15292222

B1: Protein phosphatase 1 regulatory subunit 12A (Homo sapiens), O14974 (parent)
chain: MKMADAKQKRNEQLKRWIGSETDLEPPVVKRQKTKVKFDDGAVFLAACSSGDTDEVLKLLHRGADINYANVDGLTALHQACIDDNVDMVKFLVENGANINQPDNEGWIPLHAAASCGYLDIAEFLIGQGAHVGAVNSEGDTPLDIAEEEAMEELLQNEVNRQGVDIEAARKEEERIMLRDARQWLNSGHINDVRHAKSGGTALHVAAAKGYTEVLKLLIQAGYDVNIKDYDGWTPLHAAAHWGKEEACRILVDNLCDMEMVNKVGQTAFDVADEDILGYLEELQKKQNLLHSEKRDKKSPLIESTANMDNNQSQKTFKNKETLIIEPEKNASRIESLEQEKVDEEEEGKKDESSCSSEEDEEDDSESEAETDKTKPLASVTNANTSSTQAAPVAVTTPTVSSGQATPTSPIKKFPTTATKISPKEEERKDESPATWRLGLRKTGSYGALAEITASKEGQKEKDTAGVTRSASSPRLSSSLDNKEKEKDSKGTRLAYVAPTIPRRLASTSDIEEKENRDSSSLRTSSSYTRRKWEDDLKKNSSVNEGSTYHKSCSFGRRQDDLISSSVPSTTSTPTVTSAAGLQKSLLSSTSTTTKITTGSSSAGTQSSTSNRLWAEDSTEKEKDSVPTAVTIPVAPTVVNAAASTTTLTTTTAGTVSSTTEVRERRRSYLTPVRDEESESQRKARSRQARQSRRSTQGVTLTDLQEAEKTIGRSRSTRTREQENEEKEKEEKEKQDKEKQEEKKESETSREDEYKQKYSRTYDETYQRYRPVSTSSSTTPSSSLSTMSSSLYASSQLNRPNSLVGITSAYSRGITKENEREGEKREEEKEGEDKSQPKSIRERRRPREKRRSTGVSFWTQDSDENEQEQQSDTEEGSNKKETQTDSISRYETSSTSAGDRYDSLLGRSGSYSYLEERKPYSSRLEKDDSTDFKKLYEQILAENEKLKAQLHDTNMELTDLKLQLEKATQRQERFADRSLLEMEKRERRALERRISEMEEELKMLPDLKADNQRLKDENGALIRVISKLSK

Variants of: B1
Conditions: with dapk3_human DAPK3, O43293
Chain of dapk3_human DAPK3, O43293 (O43293 whole entry, looked up): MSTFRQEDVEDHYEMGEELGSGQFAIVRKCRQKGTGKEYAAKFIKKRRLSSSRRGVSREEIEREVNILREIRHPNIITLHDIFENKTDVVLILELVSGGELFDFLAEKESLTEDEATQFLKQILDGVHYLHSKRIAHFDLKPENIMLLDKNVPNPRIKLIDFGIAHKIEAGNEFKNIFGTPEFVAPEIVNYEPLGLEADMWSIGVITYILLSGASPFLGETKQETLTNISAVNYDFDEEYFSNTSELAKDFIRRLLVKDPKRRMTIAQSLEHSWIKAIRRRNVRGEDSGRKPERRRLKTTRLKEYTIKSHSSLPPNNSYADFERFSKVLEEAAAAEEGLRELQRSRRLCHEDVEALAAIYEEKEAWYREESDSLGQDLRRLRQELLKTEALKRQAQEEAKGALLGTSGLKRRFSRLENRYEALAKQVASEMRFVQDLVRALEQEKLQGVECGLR

Row | Variant | effect of a mutation on the interaction
1 | L1007A;L1014A;L1021A;L1028A | disrupting interaction
